# According to paper PMC10207894, “A MOF/DNA luminescent sensing platform for detection of potential COVID-19 biomarkers and drugs†”:
# B1: S2 (extended IL-6 aptamer) (structured_DNA)
# DNA: TTTTTTTAAGCTTACCTGCCATGCCAGTACCCCCAGGAGAAGATTCCAAAGATGTGGCCGCCCCACAAAAAAAA
# Target: interleukin-10 (IL-10) (UniProt P22301 19-178)
# Experiment: luminescence quenching on Y-MOF; 1 uM protein; no obvious quenching at 514 nm; Y-MOF suspension 0.1 g/L (900 uL) mixed with 1 uM DNA (100 uL) 30 min; excitation 380 nm, IL-6 0-14.4 nM; buffer, salt, pH and temperature not stated
# Conditions: protein: commercial; chain copies: 2; label: 5'-FAM; stem-loop
# Chain of interleukin-10 (IL-10) (P22301 19-178): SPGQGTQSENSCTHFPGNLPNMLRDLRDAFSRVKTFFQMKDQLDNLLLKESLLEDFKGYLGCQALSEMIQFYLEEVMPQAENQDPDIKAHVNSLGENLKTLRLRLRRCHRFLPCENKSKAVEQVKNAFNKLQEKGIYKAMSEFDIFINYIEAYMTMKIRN
binder,measurement,value
B1,binding result,no binding
